The record followed here is patent EP2814500B1 (Ecole Polytechnique Fédérale de Lausanne (EPFL), dated 2020).

Experiment [1] addresses T1, mouse glycophorin-A (GYPA) on the mouse erythrocyte surface (mouse, UniProt P14220 1-168). The experiment in a line: photo-crosslinking of biotinylated peptide on whole mouse erythrocytes, streptavidin Western blot. For orientation: Immunoblotting shows a protein as a band on a membrane.
In experiment [2] the target is T1, mouse glycophorin-A (GYPA) on the mouse …. As to the kind of experiment: photo-crosslinking of biotinylated peptide on whole mouse erythrocytes, streptavidin bead purification, streptavidin and anti-GYPA Western blots.

B1: mismatch peptide (H2N-PLLTVGMDLWPWGGSGCRG-CONH2) conjugated to Mts-Atf-biotin (peptide)
peptide: H-PLLTVGMDLWPWGGSGCRG-NH2
modifications: not fully specified; also: conjugated to Mts-Atf-biotin, site not given here
notes: Control peptide with the same residues as ERY1 in scrambled order
On to B1, for which, in experiment [1], the binding result was “no binding”.

B2: ERY1 peptide (H2N-WMVLPWLPGTLDGGSGCRG-CONH2) functionalized with biotin and a photoactivatable crosslinker (peptide)
peptide: H-WMVLPWLPGTLDGGSGCRG-NH2
modifications: also: conjugated to Mts-Atf-biotin, site not given here
notes: Synthetic peptide: the ERY1 12-mer followed by a GGSG linker, Cys and Arg-Gly; also called biotinylated soluble peptide; peptide-biotin complex
For B2, in experiment [2], the binding result is “binds”.
